The source of these data is publication PMC9278117.

One assay concerns the target 4A8 monoclonal antibody. The assay is described as follows: BLI.
A further assay concerns the target CB6 monoclonal antibody. The assay is described as follows: BLI. (In general: Biolayer interferometry detects binding as a change in optical thickness at a sensor tip.)

Regarding “S1-ferritin NP (from UniProt P0DTC2 16-685) (complex)”, the Kd – broadly, the concentration at which binding is half-saturated – in the assay with 4A8 monoclonal antibody is 1.18 nM; with CB6 monoclonal antibody, less than 0.001 nM.

Take “S1-I53-50 NP (from UniProt P0DTC2 16-685) (complex)”: the results for the Kd with 4A8 monoclonal antibody and with CB6 monoclonal antibody were 0.0736 nM and less than 0.001 nM, respectively.

Consider “S1-mi3 NP (from UniProt P0DTC2 16-685) (complex)”, for which the Kd in the assay with 4A8 monoclonal antibody and in the assay with CB6 monoclonal antibody was less than 0.001 nM each time.
